Experimental data: patent publication US20110159009A1 (published 2011)

Legend:
B20.4.1 [1] = assay: SPR (BIAcore); FIG. 10; 37 C; ~60 RU VEGF immobilized; bivalent model
B20.4.1 [2] = assay: SPR (BIAcore); FIG. 11; 37 C; ~1000 RU VEGF immobilized; 1:1 Langmuir model

| Binder | Kd (B20.4.1 [1]) [nM] | Kd (B20.4.1 [2]) [nM] |
| --- | --- | --- |
| hVEGF (ligand) APMAEGGGQNHHEVVKFMDVYQRSYCHPIETLVDIFQEYPDEIEYIFKPSCVPLMRCGGCCNDEGLECVPTEESNITMQIMRIKPHQGQHIGEMSFLQHNKCECRPKKDRARQENPCGPCSERRKHLFVQDPQTCKCSCKNTDSRCKARQLELNERTCRCDKPRR | 0.02 | 1.16 |
| mVEGF (ligand) APTTEGEQKSHEVIKFMDVYQRSYCRPIETLVDIFQEYPDEIEYIFKPSCVPLMRCAGCCNDEALECVPTSESNITMQIMRIKPHQSQHIGEMSFLQHSRCECRPKKDRTKPENHCEPCSERRKHLFVQDPQTCKCSCKNTDSRCKARQLELNERTCRCDKPRR | 0.37 | 2.26 |
